From patent publication US20200392228A1 (PANDION OPERATIONS, published 2020) come the findings set out here.

For orientation: EC50 means the midpoint of the concentration-response curve.

First the molecules themselves.
T1: CD25 (Homo sapiens (Human), UniProt P01589 22-240)
T1 construct: also called IL-2R alpha chain
T1 sequence: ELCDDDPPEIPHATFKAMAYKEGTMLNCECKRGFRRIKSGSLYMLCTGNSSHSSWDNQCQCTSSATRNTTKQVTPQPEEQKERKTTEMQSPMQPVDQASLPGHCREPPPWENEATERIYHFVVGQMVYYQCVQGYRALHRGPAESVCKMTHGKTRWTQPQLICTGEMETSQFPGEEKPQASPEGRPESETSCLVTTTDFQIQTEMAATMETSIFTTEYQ

B1: IL-2M SEQ ID NO: 53 (Fc fusion)
chain: APTSSSTKKTQLQLEHLLLDLQMILNGINNYKNPKLTRMLTFKFYMPKKATEIKHLQCLEEELKPLEEALNLAPSKNFHLRPRDLISDINVIVLELKGSETTFMCEYADETATIVEFLNRWITFSQSIISTLTGGGGSGGGGSGGGGSGGGGSDKTHTCPPCPAPEAAGAPSVFLFPPKPKDTLMISRTPEVTCVVVDVSHEDPEVKFNWYVDGVEVHNAKTKPREEQYNSTYRVVSVLTVLHQDWLNGKEYKCKVSNKALPAPIEKTISKAKGQPREPQVYTLPPSREEMTKNQVSLTCLVKGFYPSDIAVEWESNGQPENNYKTTPPVLDSDGSFFLYSKLTVDKSRWQQGNVFSCSVMHEALHNHYTQKSLSLSPG
notes: also called IL-2 L53I N88D V69A, Q74P, C125S-G4Sx4-Fc
B2: IL-2M SEQ ID NO: 55 (Fc fusion)
chain: B1 chain with I53L, L80I
notes: also called IL-2 L80I N88D V69A, C125S Q74P-G4Sx4-Fc
B3: IL-2M SEQ ID NO: 54 (Fc fusion)
chain: B1 chain with I53L, L56I
notes: also called IL-2 L56I N88D V69A, Q74P, C125S-G4Sx4-Fc
B4: IL-2M SEQ ID NO: 56 (Fc fusion)
chain: B1 chain with I53L, L118I
notes: also called IL-2 L118I N88D V69A, Q74P, C125S-G4Sx4-Fc

Positions count from the first letter of the chain named. Names and notes keep the numbering of the source.

The experiment has as its target T1, CD25. Description: ELISA, plate-bound CD25. The method, then: An immunosorbent plate was coated with CD25 at a concentration of 0.5 μg/mL in PBS pH 7.4, 75 ul/well, and incubated overnight at 4° C. Wells were washed with PBS pH 7.4 containing 0.05% Tween-20 (wash buffer) three times, and then blocked with 200 ul/well 1% BSA in PBS pH 7.4 (block buffer) for two hours at room temperature. After three washes with wash buffer IL-2M molecules of Example 12 were diluted to eleven—two fold serial dilution in PBS containing 1% BSA and 0.05% Tween-20 (assay buffer) with 2 nM being the highest concentration. The diluted material was added to the CD25 coated plate at 75 ul/well for 1 hour at room temperature. After three washes with wash buffer, a goat biotinylated anti-IL-2 polyclonal antibody, diluted to 0.05 μg/mL in assay buffer, was added to the plate at 75 ul/well for 1 hr at room temperature. After three washes with wash buffer high sensitivity streptavidin HRP diluted in assay buffer at 1:5000 was added to the plate at 75 ul/well for 15 minutes at room temperature. After three washes with wash buffer and 1 wash with wash buffer (with no tween-20), the assay was developed with TMB, and stopped with 1N HCL. OD 450 nm was measured. The experiment included appropriate controls for non-specific binding of IL-2M molecules to the plate/block in the absence of CD25 and a negative control molecule that is unable to bind CD25.
For orientation: In an ELISA, binding on a coated surface is turned into a signal by an enzyme label.
For the molecule B1, the EC50 was less than 1 nM.

Turning to B2, the EC50 was less than 1 nM.

In the case of B3, the EC50 was less than 1 nM.

Regarding B4, the EC50 was less than 1 nM.
